Reference: the DeepSol protein solubility set

Experiment: soluble on expression in E. coli; label from the status in PepcDB or PDB records

Soluble on expression in E. coli, not soluble:
MGSDKIHHHHHHMIGFDYGTSNCGVATMRNGQPHIIPLLGNESYIASNLYAPSRDVIANWLSQQLDSPQQANFIAERKAQLQKGQAALRELKFDGISSELLFGKSALAQYLEDPEEGYYIKSPKSFLGASGLATAQIQFFEDIVACMMSNVKNLTEQALQKEVTQTVIGRPINFQGLHGEESNRQAISVLTNAAKRVGFKDVEFQYEPVAAGFEFESSLTKETRVLVVDIGGGTSDCSMLLMSPDFTDNDNRNDHLLAHTGVRVAGNDFDIQLALQGIMPSFGMNSLLKTGKPMPTSSFYQALAINNINEQTEFYSAKNRRNLVQLSRDAKETAIIERLVAVHDHKLSYQLVNAAEQAKIALTEQSKQTIDLSDVTDGLCAEVTKETLRSANKRTLESIANIMQSAVQQAQCQPDVIFVTGGTAKSPVLSEFLQQQMPNVPIVVGDHFGSVTSGLARWAEKIYQ
MGSDKIHHHHHHMIHVGTCGFCEKQDKYFQDFSTVEIQQTFYKILQESTLKKWREKAPEGFVFSIKAFQGVTHPPNSPTWRRSNVKPSKNVGLLRPTNEVIHYWKITLNEAKILNARFILIQLPRSFKESEESFSNAERFFSIIDRGEFEIAVELRGWSERGIKKFVREFDVIDVVDPMVRVPLHGGGVNYYRLHGKYENGRIIYSYKYSDEELLKIRERVLSFHVEESYVYFNNSNMCEDAQRFKQLIMKF
MGSDKIHHHHHHMIIDTHIHAYPTSDDSKMTLEEIVAQARIIGLDGICITDHDSNEIMARAHEYRKQMGYPIFVGAEVFTWEGDVIVFGLERLPEERVSARYLLDLVNKANGVAISAHPFRQNNRGMGNSIREHKDLHGVEAFNGSTDHANNMKACDLAMELGIPVFGASDAHNTEALGKFATVFPNGLKDEKDLIEAIKMGKVYPVAYNHSADAKWTVIPPIG
MGSDKIHHHHHHMIIFFQLSSPYLLDIYHLDILYGMSFIKAIIKKMSGGVLLKIIDTVPFFLKYYESSLAFLKHYYSQYPKIFNEYFAYHCKDTEERHDQSLAKYPESLLAIQQVRRAIIPIIEEVVEEYGRLYQVTFPTEVNLIVGGYGSNAYTHRQIIPDVTFALERLSPKVEHLQAIVAHDFGHVAHNILSSEAGMDWGKVQWDSPLIWLYQEGAAIHFSRQIAPQLPPAMYFSFDAEGEEWLRFFKENTHAVKSAFAHDYVQETSQSMFQEWFSINGGKRFGYNRLGYLVGDLLFQHFTKTKGERNAITAWKEGRFREEVERWFKR
MGSDKIHHHHHHMIIHKFIIHVLDKNSDTPILNDFEGRVSQDMDLFFQKKISKVSRDNDIRTAVFNDYSNNLIKKCCEQIIYDESSFLNSSKEIAAYLFDVMKLNATLESCDLAICLYSQKDEKKVAILKLDYNKSYTHSIEFKDDKFNIQMSKNEINIQETKTIKIGAIIGLSGVNDEYHLKVLDKDAEKEEVNSKFVTEFLNATKVKDDKYRTKMFKTFVDAYIANLYSDMKQGEDVRSILLYMLREKQNLDINEFADKAIKDDLKDSFKDHAEEKGIESFNIDKKWVEKNLKNRHIKTDTGFEVKGKMDDFEDFMKYGIRHNGNGTVDIVIKNVNFYDEK
MGSDKIHHHHHHMIIQSKLIRAALVCAAKNDVRYYLNGLHITPKHIEATNGSVALRMAHGIRTKKNIIVQFEGGVPAKAETTELIFSKEPIAVHRDQFQRRLSITGIKLVDGCFPDLDRIIPKKFDRCTHPVLQAGYLSYPEKMFGRERKFIPVQLRPSGDGQAVRIQFDSIINSMYGNPEFVVMPCRDHGDFNVAQEHPE
MGSDKIHHHHHHMIKCIDVNDLKVGMYIHDLNCDWMSHPFLVNRFKVKDESEIRKIADAGIHEVYIDTRKGMDLPSARSEGEVRKQLESELREIASRERTVTRHVEAAEEFGRAQTIHHEANQIIRDILQDVRLGKQVELEQVEPQVEKLTGSILRNGGALLSLCRIKDKDNYTFQHSVSVGALMVSFCNALGMSKEVIHHAGIGGMLHDIGKMKVPDSILNKPGKLTEQEFMVMKCHVVESQKILHATRGISETAVLVAGQHHERHDGSGYPAGLKGEEISQLGQMAAIVDVYDALTSNRCYHKGMPPTDALRKIYEWSKFHFNPELVQAFMRVIGIYPVGTLVRLESGRLGVVVEQNEDNLVSPKVKVFFSTKSNTHIPPEVVDLSRRMGFGGGDRIVKHESPEKWKIDPLRFL
MGSDKIHHHHHHMIKLIATDIDGTLVKDGSLLIDPEYMSVIDRLIDKGIIFVVCSGRQFSSEFKLFAPIKHKLLYITDGGTVVRTPKEILKTYPMDEDIWKGMCRMVRDELPACDYFAATPDFCFAEDGGSPIFHLLRDSYGFEMREVDDITRLDRNDIIKFTVFHPDKCEELCTPVFIPAWNKKAHLAAAGKEWVDCNAKGVSKWTALSYLIDRFDLLPDEVCCFGDNLNDIEMLQNAGISYAVSNARQEVIAAAKHTCAPYWENGVLSVLKSFL
MGSDKIHHHHHHMIKVGQTTEVENFLSNHPEVEAIDVLISDLVGFARGKRIEKSSLEKIYSSGLNMPATIFSMNVLGETIEECGLGQDIGEPDMVCKPIANTLHMASWHDRPIAQVLMSMFNHDGTPFFADPRNILSNVVRQLAEINLYPVVAVELEFYLLDKNKDNKGNLQAPISPKTGKRDEHTQVYSVDTLNDYSALLDDINRVCIEQNVPADTAVAECAPGQFEINLKHEADPVAACDNAILLKRIIKTVADKHNFDATFMAKPYSNEAGSGMHVHASLLDECGNNVFADEHNDYNETLEHAIGGMLELMPASMPLLCPNVNSYRRFMPGYYVAMAKNWGVDNRTVALRLPRGHKNATRIEHRVSGADANPYLVMAVILASIHHGITNKIKPINPTVGNAFDDDCEALPLKLDRALAELEKDQILTSYLGEEFTKNYHTVKQKELEQFDMHISELEVKWYLSNS
MGSDKIHHHHHHMILGIDVGGTSVKFGLVTPEGEIQNATRFMTADWVNGIGFVESMKLEIGNFLKQYPIVKGVGIGWPGLVSLDRTKVILLPNIPSVVNVPIVEILRSEFPHIHFKIENDAKCAALGEYYFGENKRMQTFILLALGTGVGSGVMMNGKLFIGGRGNGTEVGHMLTTRGKSLENQVGINHLIAYTHEQLALDVAKKSSLHTIAELSPKVIADHAAQGDALALAVWADIGTIIGESLVNIVRVMDLNNILLGGGISGAFDYFVPNLKKAMLEHLPTYYTDDMYIGKATLENDAGLLGAAGLIMEAI
MGSDKIHHHHHHMIMLEKPTCRPNNPNFSSGPCSKRPGWTLEVLKNALVGRSHRSREAALRLAEIVDLTREVLEVPSDYRIGIVPASDTGAVEMSLWSLLGERGVDMAAWESFGSGWITDVVEKLKLSDVRRFEAPYGELPDLTQMDFDRDVVFTWNGTTSGVRIPNADFIPERRAGLTICDATSAAFAQNLDFSKLDVVTFSWQKVLGGEAAHGMLILSPRAVERLESYVPTWPMPQIFCLTKDGKLNENIFKGVTINTPSLLCIEDFLDALKWAKAQGGLHALMARVEKNFAVLDAFVRKTPWLEYLAKDPQVRSNTSVCLDIVDPVVTALDTEKRVSFIKAIVNRLDEEEAAYDIGSYRDAPPGLRIWTGITIEASDLEILTSWLEWAFQVEKAQL
MGSDKIHHHHHHMINIIICEGKKSERVILNDYINTFFYNYNFEYNIKEFENGGDLLKKYPNNVDIIFMDIDLNDENGFNVSKEIKKFDESVRIIFVSSSNKYIKKGYEIGVYRYLEKPLKYSLFKEAISSYLKECYKNEAILSIKCKCKIYFIKVDDILYLEVLKNDLTIHTEKGIYTFKSSMKEIESNLEEHNFFRCHKSYLINLMKVNMLDIENNIVFINQNSIIVSRYKIKLLREKLNSCLVDVII
MGSDKIHHHHHHMIPLHTSMRGLRCFCVAAECLSFKETAKRLYLTPSAVSHQIKQLEESLNQSLFIRQTRAVTLTEVGARFYQAIEPVMQQLVNTVSEFNQSDRMLEVSISMPEFFASELFMPKLIGWSSKYPNINLKLETIKSRSDMIKHTDASIMLSGKQQTNADVYDLFPITYIPACNAQLHAELSSQGFKALTQVPLILHKARPYAWHQWAENVGFDAFQPKQIIQLDSMFSVARAAEQGLGIALIPLPISQAWFDNGTLLSLFPHPLFSHDRYYLIRHTNEQQRPEVQLLIDWILKSFHDESH
